This assay addresses C1s (Kordia, The Netherlands/Enzyme Research Lab. Inc., USA) (UniProt P09871). In words: cell-based or functional assay.
Sequence of UniProt P09871 (P09871 16-688 limits assumed): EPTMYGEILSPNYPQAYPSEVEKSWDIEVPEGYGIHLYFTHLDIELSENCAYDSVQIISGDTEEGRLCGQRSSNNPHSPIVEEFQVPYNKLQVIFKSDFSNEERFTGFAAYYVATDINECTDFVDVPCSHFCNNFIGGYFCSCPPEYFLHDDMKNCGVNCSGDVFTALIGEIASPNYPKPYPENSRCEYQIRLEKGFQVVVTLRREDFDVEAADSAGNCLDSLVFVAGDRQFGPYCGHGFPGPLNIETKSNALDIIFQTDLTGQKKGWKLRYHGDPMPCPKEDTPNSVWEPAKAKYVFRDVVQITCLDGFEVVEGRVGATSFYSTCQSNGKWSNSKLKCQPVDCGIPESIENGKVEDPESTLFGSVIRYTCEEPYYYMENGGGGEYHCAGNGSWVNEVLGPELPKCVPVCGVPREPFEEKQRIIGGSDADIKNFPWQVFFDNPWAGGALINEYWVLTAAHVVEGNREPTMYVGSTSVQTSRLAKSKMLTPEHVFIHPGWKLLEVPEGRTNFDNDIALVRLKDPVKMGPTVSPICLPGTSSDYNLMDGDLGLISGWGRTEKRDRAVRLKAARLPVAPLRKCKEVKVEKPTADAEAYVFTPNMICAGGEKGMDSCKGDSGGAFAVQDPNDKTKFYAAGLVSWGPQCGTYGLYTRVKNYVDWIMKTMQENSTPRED
As to “recombinant human C1 inhibitor purified from milk of transgenic rabbit line 2972p (from UniProt P05155 23-500)”, the functionality index (F.I.): ratio between functionally active C1 inhibitor (C1s inhibition test) and total C1 inhibitor antigen was 1.15.
As to “Cetor (C1 inhibitor purified from pooled human plasma, CLB, The Netherlands) (from UniProt P05155 23-500)”, the functionality index (F.I.): ratio between functionally active C1 inhibitor (C1s inhibition test) and total C1 inhibitor antigen is 1.07.
For “recombinant human C1 inhibitor purified from milk of transgenic rabbit line 2972q (from UniProt P05155 23-500)”, the functionality index (F.I.): ratio between functionally active C1 inhibitor (C1s inhibition test) and total C1 inhibitor antigen is 1.07.
The figure for “recombinant human C1 inhibitor purified from milk of transgenic rabbit line 2977q (from UniProt P05155 23-500)” is 0.91.
